Data as given in patent US20240000938A1.

What was measured:
[1] = biological target: streptavidin-PE-HLA-A*02-pMHC or streptavidin-APC-HLA-A*02-pMHC tetramer (human); experiment: flow cytometry; HLA-A*02 positive donor primary T cells with CAR and A*02 blocker, before B2M knockout
[2] = biological target: HLA-A*02 on cells (human); experiment: cell-based or functional assay
[3] = biological target: streptavidin-PE-HLA-A*02-pMHC or streptavidin-APC-HLA-A*02-pMHC tetramer (human); experiment: flow cytometry; HLA-A*02 positive donor primary T cells with CAR and A*02 blocker, after B2M knockout with sgRNA B2M-3
[4] = biological target: streptavidin-PE-HLA-A*02-pMHC or streptavidin-APC-HLA-A*02-pMHC tetramer (human); experiment: flow cytometry; HLA-A*02 positive donor primary T cells with CAR and A*02 blocker, after B2M knockout with sgRNA B2M-6

HLA-A*02 PA2.1 ScFv LIR1 inhibitor (C1765) (from UniProt Q8NHL6 398-650)
% of cells negative for the A*02 blocker probe [1]: > 85% | % of the cell population stained with the A*02 blocker probe [1]: 14.8% | inhibition of IFNγ induction in primary T cells (HeLa cells) [2]: > 5 fold | inhibition of IFNγ induction in primary T cells (SiHa cells) [2]: > 10 fold | suppression of pan HLA scFv CAR signal (T2 cells) [2]: < 25 fold | % of the cell population stained with the A*02 blocker probe [3]: 40.7% | % of the cell population stained with the A*02 blocker probe [4]: 44%
